According to publication PMC6965139, “Crystal structures of fukutin-related protein (FKRP), a ribitol-phosphate transferase related to muscular dystrophy” (Nature Communications, 2020):

Tests used:
[1] = molecular target: T1, sFKRP (secreted type, His/Myc, WT) (Homo sapiens, UniProt Q9H9S5); assay: ribitol-phosphate transfer, HPLC and MALDI-TOF MS; assay type: biochemical; conditions: 200 uM CDP-Rbo, 40 uM RboP-(phospho-)core M3 peptide, 10 mM MnCl2 and MgCl2, pH 6.5, 310 K; enzyme on anti-Myc agarose
T1 construct: gene FKRP; Asn33 to C-terminus in ss1-His/Myc-pcDNA3.1; secreted from HEK293T; immunoprecipitated on anti-c-Myc agarose; tags kept
T1 sequence (Q9H9S5 33-495): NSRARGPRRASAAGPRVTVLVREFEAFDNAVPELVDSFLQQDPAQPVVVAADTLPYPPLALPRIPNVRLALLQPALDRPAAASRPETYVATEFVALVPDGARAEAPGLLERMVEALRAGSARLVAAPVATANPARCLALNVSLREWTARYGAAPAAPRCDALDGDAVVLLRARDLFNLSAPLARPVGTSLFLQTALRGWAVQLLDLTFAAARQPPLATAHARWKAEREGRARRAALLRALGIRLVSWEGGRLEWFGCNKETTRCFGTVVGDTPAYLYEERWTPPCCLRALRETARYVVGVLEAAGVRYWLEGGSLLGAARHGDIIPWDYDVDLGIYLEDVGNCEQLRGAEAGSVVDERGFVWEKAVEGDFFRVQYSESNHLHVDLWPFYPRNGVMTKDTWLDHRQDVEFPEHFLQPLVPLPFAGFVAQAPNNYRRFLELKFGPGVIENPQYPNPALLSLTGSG

[2] = molecular target: secreted type of FKRP Tyr88Phe mutant (Asn33 to the C-terminus, His/Myc) (human) (UniProt Q9H9S5)
[3] = molecular target: secreted type of FKRP Ser221Arg mutant (Asn33 to the C-terminus, His/Myc) (human) (UniProt Q9H9S5)
[4] = molecular target: secreted type of FKRP Leu276Ile mutant (Asn33 to the C-terminus, His/Myc) (human) (UniProt Q9H9S5)
[5] = molecular target: the molecule itself; assay: crystal structure; sFKRP without substrates, Mg2+ and Ba2+ bound forms; four subunits in the asymmetrical unit; hanging-drop vapor diffusion at 293 K, PEG 4000, HEPES-NaOH pH 7.5; interfaces judged with ePISA

Nc1ccn([C@@H]2O[C@H](COP(=O)(O)OP(=O)(O)OC[C@@H](O)[C@@H](O)[C@@H](O)CO)[C@@H](O)[C@H]2O)c(=O)n1 [CDP-Rbo]
ribitol-phosphate transfer, HPLC and MALDI-TOF MS [1]: Enzymatic activity of sFKRP with CDP-Rbo and the RboP-(phospho-)core M3 peptide

B1: secreted type of FKRP Tyr88Phe mutant (Asn33 to the C-terminus, His/Myc) (enzyme)
chain: NSRARGPRRASAAGPRVTVLVREFEAFDNAVPELVDSFLQQDPAQPVVVAADTLPFPPLALPRIPNVRLALLQPALDRPAAASRPETYVATEFVALVPDGARAEAPGLLERMVEALRAGSARLVAAPVATANPARCLALNVSLREWTARYGAAPAAPRCDALDGDAVVLLRARDLFNLSAPLARPVGTSLFLQTALRGWAVQLLDLTFAAARQPPLATAHARWKAEREGRARRAALLRALGIRLVSWEGGRLEWFGCNKETTRCFGTVVGDTPAYLYEERWTPPCCLRALRETARYVVGVLEAAGVRYWLEGGSLLGAARHGDIIPWDYDVDLGIYLEDVGNCEQLRGAEAGSVVDERGFVWEKAVEGDFFRVQYSESNHLHVDLWPFYPRNGVMTKDTWLDHRQDVEFPEHFLQPLVPLPFAGFVAQAPNNYRRFLELKFGPGVIENPQYPNPALLSLTGSG
glycosyltransferase activity with CDP-Rbo and the RboP-(phospho-)core M3 peptide, relative to the wild-type enzyme (% of the wild-type enzyme) [2]: 20

B2: secreted type of FKRP Ser221Arg mutant (Asn33 to the C-terminus, His/Myc) (enzyme)
chain: NSRARGPRRASAAGPRVTVLVREFEAFDNAVPELVDSFLQQDPAQPVVVAADTLPYPPLALPRIPNVRLALLQPALDRPAAASRPETYVATEFVALVPDGARAEAPGLLERMVEALRAGSARLVAAPVATANPARCLALNVSLREWTARYGAAPAAPRCDALDGDAVVLLRARDLFNLSAPLARPVGTRLFLQTALRGWAVQLLDLTFAAARQPPLATAHARWKAEREGRARRAALLRALGIRLVSWEGGRLEWFGCNKETTRCFGTVVGDTPAYLYEERWTPPCCLRALRETARYVVGVLEAAGVRYWLEGGSLLGAARHGDIIPWDYDVDLGIYLEDVGNCEQLRGAEAGSVVDERGFVWEKAVEGDFFRVQYSESNHLHVDLWPFYPRNGVMTKDTWLDHRQDVEFPEHFLQPLVPLPFAGFVAQAPNNYRRFLELKFGPGVIENPQYPNPALLSLTGSG
glycosyltransferase activity with CDP-Rbo and the RboP-(phospho-)core M3 peptide, relative to the wild-type enzyme (% of the wild-type enzyme) [3]: 5

B3: secreted type of FKRP Leu276Ile mutant (Asn33 to the C-terminus, His/Myc) (enzyme)
chain: NSRARGPRRASAAGPRVTVLVREFEAFDNAVPELVDSFLQQDPAQPVVVAADTLPYPPLALPRIPNVRLALLQPALDRPAAASRPETYVATEFVALVPDGARAEAPGLLERMVEALRAGSARLVAAPVATANPARCLALNVSLREWTARYGAAPAAPRCDALDGDAVVLLRARDLFNLSAPLARPVGTSLFLQTALRGWAVQLLDLTFAAARQPPLATAHARWKAEREGRARRAALLRALGIRIVSWEGGRLEWFGCNKETTRCFGTVVGDTPAYLYEERWTPPCCLRALRETARYVVGVLEAAGVRYWLEGGSLLGAARHGDIIPWDYDVDLGIYLEDVGNCEQLRGAEAGSVVDERGFVWEKAVEGDFFRVQYSESNHLHVDLWPFYPRNGVMTKDTWLDHRQDVEFPEHFLQPLVPLPFAGFVAQAPNNYRRFLELKFGPGVIENPQYPNPALLSLTGSG
glycosyltransferase activity with CDP-Rbo and the RboP-(phospho-)core M3 peptide, relative to the wild-type enzyme (% of the wild-type enzyme) [4]: 50

B4: soluble form of fukutin-related protein (sFKRP, residues 45 to C-terminus) (enzyme, human, UniProt Q9H9S5 45-495, looked up)
chain: AGPRVTVLVREFEAFDNAVPELVDSFLQQDPAQPVVVAADTLPYPPLALPRIPNVRLALLQPALDRPAAASRPETYVATEFVALVPDGARAEAPGLLERMVEALRAGSARLVAAPVATANPARCLALNVSLREWTARYGAAPAAPRCDALDGDAVVLLRARDLFNLSAPLARPVGTSLFLQTALRGWAVQLLDLTFAAARQPPLATAHARWKAEREGRARRAALLRALGIRLVSWEGGRLEWFGCNKETTRCFGTVVGDTPAYLYEERWTPPCCLRALRETARYVVGVLEAAGVRYWLEGGSLLGAARHGDIIPWDYDVDLGIYLEDVGNCEQLRGAEAGSVVDERGFVWEKAVEGDFFRVQYSESNHLHVDLWPFYPRNGVMTKDTWLDHRQDVEFPEHFLQPLVPLPFAGFVAQAPNNYRRFLELKFGPGVIENPQYPNPALLSLTGSG
notes: fukutin-related protein (FKRP), human, residues 45 to C-terminus, 451 amino acid residues in total; stem domain 45-287, catalytic domain 288-495; Sugar chains were removed by Endo H glycosidase before the last gel filtration; also called lumenal region of human FKRP; not shown: protein A, N-terminal, cleaved
stoichiometry N [5]: 4
